Laboratory results from the Human Domainome abundance scans (Beltran et al. 2025).
± gives the uncertainty stated by the source.

B1: Ankyrin-1, residues 1405 to 1484; numbered along this chain, P16157 (parent)
chain: MKMAVISEHLGLSWAELARELQFSVEDINRIRVENPNSLLEQSVALLNLWVIREGQNANMENLYTALQSIDRGEIVNMLE

Variants of: B1
Assay: abundance fitness (aPCA) (normalised: wild type 0, dead -1); higher = more abundant; growth selection in yeast, the domain comes from the species named
Conditions: Homo sapiens

Variant | abundance fitness
V51Q | 0.176 ± 0.074
V51G | -0.001 ± 0.05
A4E | -0.142 ± 0.18
A4D | 0.159 ± 0.12
A4W | -0.397 ± 0.15
A4R | -0.071 ± 0.076
E16L | -0.162 ± 0.054
E16C | -0.271 ± 0.083
E16Q | -0.081 ± 0.11
E16P | -0.091 ± 0.064
E16I | -0.384 ± 0.13
W14R | -1.08 ± 0.21
W14M | -0.454 ± 0.13
W14A | -0.799 ± 0.16
W14T | -0.758 ± 0.14
W14D | -0.907 ± 0.28
W14N | -0.865 ± 0.24
L39G | -0.423 ± 0.15
L39F | -0.068 ± 0.14
L39I | -0.41 ± 0.43
L39E | 0.105 ± 0.09

Variant | abundance fitness
R32L | -0.095 ± 0.056
R32G | -0.212 ± 0.06
R32T | -0.141 ± 0.083
R32F | 0.069 ± 0.098
S43K | -0.598 ± 0.15
S43C | -0.552 ± 0.11
S43T | -0.807 ± 0.21
Y64D | -0.797 ± 0.44
Y64K | -0.473 ± 0.2
Y64P | -0.725 ± 0.22
E41R | 0.054 ± 0.053
E41G | -0.086 ± 0.035
E41Q | -0.1 ± 0.12
E41P | -0.574 ± 0.19
E41Y | -0.28 ± 0.096
E41M | -0.275 ± 0.12
D71W | -0.827 ± 0.14
D71S | -0.213 ± 0.07
Q42Y | -0.864 ± 0.28
Q42W | -0.794 ± 0.17
Q42E | -0.926 ± 0.18

Variant | abundance fitness
Q42N | -0.882 ± 0.33
Q42L | -0.863 ± 0.11
Q42F | -0.899 ± 0.25
V44R | 0.181 ± 0.051
V44Y | 0.03 ± 0.09
V44A | 0.148 ± 0.059
V44Q | 0.18 ± 0.12
N48H | -0.042 ± 0.086
N48T | -0.544 ± 0.11
N48I | -1.04 ± 0.24
N48S | -0.277 ± 0.07
R72E | -0.647 ± 0.11
R72S | -0.57 ± 0.11
R72C | -0.146 ± 0.14
R72H | -0.15 ± 0.14
R72D | -0.683 ± 0.17
R72I | -0.753 ± 0.22
L46I | -0.446 ± 0.12
L46G | -0.953 ± 0.13
L46Q | -1.13 ± 0.41
I31R | -0.647 ± 0.083

Variant | abundance fitness
I31M | -0.524 ± 0.12
I31T | -0.774 ± 0.3
I31H | -1.07 ± 0.28
N77M | -0.152 ± 0.12
N77C | -0.479 ± 0.18
N77V | -0.078 ± 0.11
N77A | 0.084 ± 0.061
E20L | -0.411 ± 0.057
E20V | -0.175 ± 0.062
E34P | -0.992 ± 0.49
E34C | -0.257 ± 0.19
E34D | -0.186 ± 0.33
E34N | -0.134 ± 0.35
R53C | -0.797 ± 0.2
R53K | -0.17 ± 0.08
R19Y | -0.434 ± 0.17
R19T | -0.092 ± 0.046
R19M | 0.003 ± 0.1
R19K | -0.048 ± 0.17
E61D | -0.1 ± 0.28
E61R | -0.316 ± 0.16
